Values quoted from earlier work in publication PMC11750407.

Molecular target: coagulation factor Xa (Homo sapiens) (UniProt P00742)
Chain of UniProt P00742 (P00742 41-179, chain 1 of 2): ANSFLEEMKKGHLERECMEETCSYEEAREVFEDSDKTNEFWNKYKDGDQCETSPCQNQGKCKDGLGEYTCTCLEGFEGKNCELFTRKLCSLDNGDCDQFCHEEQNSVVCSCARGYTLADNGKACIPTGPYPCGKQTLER
Chain of UniProt P00742 (P00742 235-488, chain 2 of 2): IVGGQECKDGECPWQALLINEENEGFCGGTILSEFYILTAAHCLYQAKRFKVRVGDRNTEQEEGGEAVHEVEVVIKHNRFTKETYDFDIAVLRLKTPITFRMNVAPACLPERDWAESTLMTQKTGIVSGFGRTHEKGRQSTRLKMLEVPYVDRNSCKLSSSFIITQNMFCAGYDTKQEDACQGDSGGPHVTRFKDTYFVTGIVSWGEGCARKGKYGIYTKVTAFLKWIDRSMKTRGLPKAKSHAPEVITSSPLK

Kd: 1000 nM
Substance: coagulation factor Va (from UniProt P12259)
